Assay results as given in PMC1885673 (Nucleic Acids Research, 2007).

T1: S. pombe Hop2-Mnd1 complex, purified, His-tagged (S. pombe, UniProt Q9HGK2;Q09739)
T1 sequence 1: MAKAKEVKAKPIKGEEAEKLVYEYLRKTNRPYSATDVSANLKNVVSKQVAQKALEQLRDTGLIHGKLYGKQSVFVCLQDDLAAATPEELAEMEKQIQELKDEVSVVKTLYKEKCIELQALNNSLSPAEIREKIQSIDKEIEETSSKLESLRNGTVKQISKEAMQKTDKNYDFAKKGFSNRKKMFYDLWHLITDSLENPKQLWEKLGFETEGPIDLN
T1 sequence 2: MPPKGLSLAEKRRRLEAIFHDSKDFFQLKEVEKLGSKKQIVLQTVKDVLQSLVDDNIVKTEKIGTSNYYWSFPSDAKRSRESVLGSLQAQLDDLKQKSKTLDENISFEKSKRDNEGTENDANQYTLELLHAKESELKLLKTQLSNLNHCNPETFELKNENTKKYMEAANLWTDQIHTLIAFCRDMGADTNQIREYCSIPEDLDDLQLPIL

T2: S. pombe Hop2 (Meu13), His-tagged, from pET28b, co-expressed and co-purified with Mnd1 (S. pombe, UniProt Q9HGK2 1-216)
T2 sequence: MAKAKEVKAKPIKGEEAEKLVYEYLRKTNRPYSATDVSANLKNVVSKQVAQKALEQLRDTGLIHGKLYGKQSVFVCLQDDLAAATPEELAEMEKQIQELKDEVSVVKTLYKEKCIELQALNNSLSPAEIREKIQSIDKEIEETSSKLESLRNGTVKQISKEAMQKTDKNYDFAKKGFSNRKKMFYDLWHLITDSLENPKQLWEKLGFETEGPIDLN


Key:
[1] = target: T1, S. pombe Hop2-Mnd1 complex, purified, …; assay: pull-down
[2] = target: T2, S. pombe Hop2 (Meu13), His-tagged, from …; assay: co-elution in ion-exchange chromatography

binding result [1] | binding result [2] | Binder
binds |  | S. pombe Dmc1, purified (natural protein) MEEFAEGNDDEQMIFSDIEDLTAHGIGMTDIIKLKQAGVCTVQGVHMSTKRFLLKIKGFSEAKVDKLKEAASKMCPANFSTAMEISQNRKKVWSISTGSEALNGILGGGIQSMSITEVFGEFRCGKTQMSHTLCVTAQLPRDMGGAEGKVAFIDTEGTFRPDRIKAIAERFGVDADQAMENIIVSRAYNSEQQMEYITKLGTIFAEDGQYRLLIVDSIMALFRVDYSGRGELSERQQKLNIMLARLNHISEEFNVAVFVTNQVQADPGAAMMFASNDRKPVGGHVMAHASATRLLLRKGRGEERVAKLNDSPDMPEAECSYVITPGGIADVS
 | binds | S. pombe Mnd1 (Mcp7), His-tagged, from pET16b, co-expressed and co-purified with Hop2 (natural protein) MPPKGLSLAEKRRRLEAIFHDSKDFFQLKEVEKLGSKKQIVLQTVKDVLQSLVDDNIVKTEKIGTSNYYWSFPSDAKRSRESVLGSLQAQLDDLKQKSKTLDENISFEKSKRDNEGTENDANQYTLELLHAKESELKLLKTQLSNLNHCNPETFELKNENTKKYMEAANLWTDQIHTLIAFCRDMGADTNQIREYCSIPEDLDDLQLPIL
binds |  | S. pombe Rad51, purified (natural protein) MADTEVEMQVSAADTNNNENGQAQSNYEYDVNVQDEEDEAAAGPMPLQMLEGNGITASDIKKIHEAGYYTVESIAYTPKRQLLLIKGISEAKADKLLGEASKLVPMGFTTATEYHIRRSELITITTGSKQLDTLLQGGVETGSITELFGEFRTGKSQICHTLAVTCQLPIDMGGGEGKCLYIDTEGTFRPVRLLAVADRYGLNGEEVLDNVAYARAYNADHQLELLQQAANMMSESRFSLLVVDSCTALYRTDFSGRGELSARQMHLARFMRTLQRLADEFGIAVVITNQVVAQVDGISFNPDPKKPIGGNILAHSSTTRLSLRKGRGEQRICKIYDSPCLPESEAIFAINSDGVGDPKEIIAPV
